Laboratory results reported in patent US20210388330A1.
One block for each binder: values may come before it.

What was measured:
[1] = target: soluble mannose-6-phosphate receptor (sM6PR); assay: Biacore (SPR) analysis of binding to sM6PR, two KD values fitted
[2] = target: soluble mannose-6-phosphate receptor (sM6PR); assay: Biacore (SPR), dpIDS compared with untreated IDS

- KD1 [1]: 58.2 nM
- KD2 [1]: 0.813 nM
B1: Recombinant iduronate-2-sulfatase (IDS), produced in human HT-1080 cells (enzyme)
chain: SETQANSTTDALNVLLIIVDDLRPSLGCYGDKLVRSPNIDQLASHSLLFQNAFAQQAVCAPSRVSFLTGRRPDTTRLYDFNSYWRVHAGNFSTIPQYFKENGYVTMSVGKVFHPGISSNHTDDSPYSWSFPPYHPSSEKYENTKTCRGPDGELHANLLCPVDVLDVPEGTLPDKQSTEQAIQLLEKMKTSASPFFLAVGYHKPHIPFRYPKEFQKLYPLENITLAPDPEVPDGLPPVAYNPWMDIRQREDVQALNISVPYGPIPVDFQRKIRQSYFASVSYLDTQVGRLLSALDDLQLANSTIIAFTSDHGWALGEHGEWAKYSNFDVATHVPLIFYVPGRTASLPEAGEKLFPYLDPFDSASQLMEPGRQSMDLVELVSLFPTLAGLAGLQVPPRCPVPSFHVELCREGKNLLKHFRFRDLEEDPYLPGNPRELIAYSQYPRPSDIPQWNSDKPSLKDIKIMGYSIRTIDYRYTVWVGFNPDEFLANFSDIHAGELYFVDSDPLQDHNMYNDSQGGDLFQLLMP
modifications: mannose-6-phosphate residues on N-linked oligomannose glycans; M6P content 2.56 pmol M6P/pmol protein (Table 3)

- fold reduction of binding affinity of KD2 against IDS [2]: 7 fold
- KD1 [1]: 32.1 nM
- KD2 [1]: 5.94 nM
B2: CIP-treated dephosphorylated iduronate-2-sulfatase (dpIDS) (enzyme)
chain: B1 chain
modifications: dephosphorylated with acrylic bead-bound calf intestine alkaline phosphatase; M6P content reduced to 0.15 pmol M6P/pmol protein (Table 3)
